From the DeepSol protein solubility set

Experiment: soluble on expression in E. coli; label from the status in PepcDB or PDB records

Sequence | soluble on expression in E. coli
MRKPKITVIGGGTGSPVILKSLREKDVEIAAIVTVADDGGSSGELRKNMQQLTPPGDLRNVLVAMSDMPKFYEKVFQYRFSEDAGAFAGHPLGNLIIAGLSEMQGSTYNAMQLLSKFFHTTGKIYPSSDHPLTLHAVFQDGTEVAGESHIVDHRGIIDNVYVTNALNDDTPLASRRVVQTILESDMIVLGPGSLFTSILPNIVIKEIGRALLETKAEIAYVCNIMTQRGETEHFTDSDHVEVLHRHLGRPFIDTVLVNIEKVPQEYMNSNRFDEYLVQVEHDFVGLCKQVSRVISSNFLRLENGGAFHDGDLIVDELMRIIQVKKLEHHHHHH | soluble
MADSSSSSFFPDFGLLLYLEELNKEELNTFKLFLKETMEPEHGLTPWNEVKKARREDLANLMKKYYPGEKAWSVSLKIFGKMNLKDLCERAKEEINWSAQTIGPDDAKAGETQEDQEAVLGDGTEYRNRIKEKFCITWDKKSLAGKPEDFHHGIAEKDRKLLEHLFDVDVKTGAQPQIVVLQGAAGVGKTTLVRKAMLDWAEGSLYQQRFKYVFYLNGREINQLKERSFAQLISKDWPSTEGPIEEIMYQPSSLLFIIDSFDELNFAFEEPEFALCEDWTQEHPVSFLMSSLLRKVMLPEASLLVTTRLTTSKRLKQLLKNHHYVELLGMSEDAREEYIYQFFEDKRWAMKVFSSLKSNEMLFSMCQVPLVCWAACTCLKQQMEKGGDVTLTCQTTTALFTCYISSLFTPVDGGSPSLPNQAQLRRLCQVAAKGIWTMTYVFYRENLRRLGLTQSDVSSFMDSNIIQKDAEYENCYVFTHLHVQEFFAAMFYMLKGSWEAGNPSCQPFEDLKSLLQSTSYKDPHLTQMKCFLFGLLNEDRVKQLERTFNCKMSLKIKSKLLQCMEVLGNSDYSPSQLGFLELFHCLYETQDKAFISQAMRCFPKVAINICEKIHLLVSSFCLKHCRCLRTIRLSVTVVFEKKILKTSLPTNTWLKFITFPDGCQDISTSLIHNKNLMHLDLKGSDIGDNGVKSLCEALKHPECKLQTLRLESCNLTVFCCLNISNALIRSQSLIFLNLSTNNLLDDGVQLLCEALRHPKCYLERLSLESCGLTEAGCEYLSLALISNKRLTHLCLADNVLGDGGVKLMSDALQHAQCTLKSLVLRRCHFTSLSSEYLSTSLLHNKSLTHLDLGSNWLQDNGVKLLCDVFRHPSCNLQDLELMGCVLTNACCLDLASVILNNPNLRSLDLGNNDLQDDGVKILCDALRYPNCNIQRLGLEYCGLTSLCCQDLSSALICNKRLIKMNLTQNTLGYEGIVKLYKVLKSPKCKLQVLGQQDFQAAQGKLQQRRPLKPLRPGQVNRKLKTEKETQNCRLSRRRIGPLETADQSQAAGARPAAGLRLRFRGLGD | soluble
MRCPKCNYHKSSVVDSRQAEDGNTIRRRRECEQCHTRFTTFERVEELPLLVIKKDGTREQFSRDKILNGVVQSAQKRPVSSTDIENVISRIEQEVRTTYENEVSSTAIGNLVMDELAELDEITYVRFASVYKSFKDVDEIEELLQQITNRVRGKKKRLNNDETN | not soluble
MNRGVITISESGTVSMPTYTVWMTLQEIADMYNVFGCYVRKAVKAIFKDGILKEQGVRRHVRKNDRISYDVYSLELVIAVAFRIDSIESRAFREFIMQSVIGRQTSRTKLVCIFTENAMA | not soluble
MGSDKIHHHHHHMRRSSVFAGSDGQLDLFVGAGSNIAARDAQDLMAWPFFSLAKTKRVRPIDFRMGEVSILVEATAEHGMATIWDADVLIWVASQIVEARDCGRSTSRLIAATPHEILSFTRRGTGKASYERLKAGLDRLQSTTVATSIRQPHQRRRHRFSWINEWRECLDSSGRALGIEMIVPDWFYEGVLDAALVLTIDRAYFGLTGGLERWLYRIVRKHGGKQKGGWSFDVAHLHLKSGALSPLKRFAFELRDIVRRQPLPGYRLELEHALGRERLSFVCIPEDSFDAAMRRLGYSGVDNP | not soluble
MVESENKDIEESGAEVDRRDVRSLVRKLSDNNWEIPKGHIPNMRVPGRLFVSEKLLEGIEPGTIDQIANVATLPGIQKYSMAMPDAHLGYGFAIGGVAAFDVEEGVISPGGVGFDINCGVRLIRTNLQKEDVVPHIKRLTDELFSNVPSGVGSKSRFKASDKELDSAFLEGAKWAVDAGYGVEADVEHCEGNGFLEGADTSHVSSKARNRGKPQLGTLGSGNHFLEVQYVDEIYDPEVASAFGLEEGQVTVMVHCGSRGAGHQICTDHLKELSQAVKRYGIEIPDKQLACAPAQSKEAQNYFKAMLCAANYAWANRQMITHWTRESFEKIFGRDADDMEMSLLYDVAHNVAKLEEHSIEGRKKEVYVHRKGATRAFPAGHPEVPSAYRDVGQPVLIPGSMGTPSFILCGSTESMDVSFGSACHGAGRVMSRAHAKKEFHGQSIKEDLEAHGITVRATHPSVIAEEAPGVYKSSSEVVNVVHELGIARKVARVIPLGVAKGLEHHHHHH | not soluble
MGVSLSKGGNVSLTKEAPGLTAVIVGLGWDIRTTTGTDFDLDASALLLNSGGKVASDAHFIFFNNLKSPDGSVEHTGDNITGEGEGDDEQIKINLATVPADIEKIVFPVSIYDAENRQQSFGQVRNAFIRVVNQAGEAEIARYDLSEDASTETAMVFGELYRHGAEWKFRAIGQGYASGLRGIAQDFGVNV | soluble
MMFKNFPFFKGKKDTSFDHLVEEVKKGYIPEHIAIIMDGNGRWAKRRAMPRIAGHHEGMQVVKKITKFASKLNVKVLTLYAFSTENWKRPKKEVDYLMQLPEEFLGTFLPELIEENVQVRVIGQQDRLPTHTRRAMEKAMEETKENTGLILNFALNYGSRDEIVSAVQHMMKDSEEGKVRVEDVSEEMLSSYLMTSSLPDPELLIRTSGELRISNFMLWQIAYSEFWFTDVYWPDFTEEHLLNAITDFQHRGRRFGGV | not soluble
MEAEIFPGTIHLIDKPQAIPEAIRLLSASRTIGFDTETRPSFVRGARPSVALMQMSTETDCFLFRLNMIDIPEELQQLLENPGILKVGLSLSDDMTVIRRRKPIEPAGFVELQRLCPAYGIRDASLQKIYAILFGRRISKSQRLTNWEARTLTAAQQSYAALDAWACLRIFNQLMTLPTPTPVQFALL | not soluble
MGSDKIHHHHHHMHIPPFDNQNQAIVGEGDAHVPLTYFNIVKLKEGEAYDYRLKGYETCIVPATGTVDVEVGGEVFADIGNRCVDVWDGDPEGVYVPTNVGAHITARTDAEIFVAGAQFTETLTPFAVRAGELDLVQYGSDETKTHRKIKHILGAGHHDRVGRLLVSELFTVGAGGWSGFPSHKHDTDRLPDETRHDECYNFRFKPDYGSGLQMLQREDNEPGDAYHIMNGSTVLIDKGYHPCCALPGYEMYYFTILGGLSQRSLKQYFQPTHSEQLHTIPGIMDMVAKFK | not soluble
MHAFTTERLLIRPLISEDEHFYCYQYTDKKMMRIVGEPLTQEQASAAFHRALKANNLEQDTVRTWAIVDKAANDIIGTQALSWLATRQTTKPSSSPIEQVEIGIMLATRANGKLLPEEAVSAIMEYGFKQLNIGRINAFYANKNRATQRILKKIGYIFEPCLQDNTTDNGYQYFEQHQWSGVIITQLFPEEIEIKEPTVND | not soluble
MSVVLGENELVIRGCILYEVLNKKPIQESYENFCRNVGNDVMSYNDFDFWFYRFYNGNHDLHYDRSADPASPLLSNMPLNIIDEVLNRMEILNLLVLMKVSRNFRKVVQNMKMVFDCIEVDFDEHLAITYNSRHKIKYRPNDTAQYSPFRQEPTCTCGRRIRTSDEDNRKEFFVTDEDYIELGVKDLKLIMENQNVQLKKFQFSNGSNQDTQKKFIDRAEIAFKSAKSSTRTVEAHYNSLAEIAQLLPIFHAGKLEEINFKQGARTDGYEQLVGLEQWKNARKFDGFWSLNVPIEHCLHFECFKDHFVRFKEEDAMKLRYMLDRSTNFGYAEITIDPMNVSLLKRAFDVNNDNKFEFVYQSPDNGSFEVHCALRVLYITKSGYKFKYNNKSASTFYKPPPIPAPPALFLRDYQFFDPRPRMPTDRSRYRPF | not soluble
SKEHREIAKKIAQKSMVLLKNENILPFTPQEKIALVGPGAQSQDILGAWSWQGKKEEAISLVAGAQKLTTNLLVAQEPFDYFEPTAAAIEEALTLASQADKVVVALGETDWMSGEAASRSDIRLPEKQLAVVAQIIEKNPNVVVTVYSGRPLDLQGIDVAKGIVQAWQPGTEGGNALAEILWGQYNPSGRLSMSFPETVGQVPIFYNVDNTGRPYESAPEEKYVSKYLDVSNYAKYPFGFGLSYSHF | not soluble
MGSDKIHHHHHHMNYLEAEDLTTGYGRQVISEALNCSFEAGTITSIIGPNGCGKSTLLKTLARILPAEKGKVFIKNQELQHFSSKEVAQELAILSQTPENTIDLSVFDLVSFGRYPYQSGWKSVTTEDQEYIQWALELTGLTELARESVAILSGGQRQRVWIAMALVQDTDILILDEPTTYLDPAHQLEILNVLKRINQEHQKTIVMTIHDINLASRFSDRVIAMKEGKIINEGTPQEVITVTGLADVFAIQAEISYHSQTQRPLVLSYELMEMELDG | not soluble
MSWWKRIFSRSESSTTESNSASSLPAADLDDDLLVEVKNLVAITGPKMPYELARLLKISHARATRLAAAANAQNPTPSRARTSDAQAQQPAAASPKPPAEPVAAEPKKKRAKKATPVEAGLPPLTGKITGGHACAFDVVGESYYQPALRRLRNGRHMATDNDFVADIVAEPDNPHDPNACAVYIEGFKVGYLPRDAAADFQQQVADMGVTGTWRLQTKAKLSGGWGDRPMVGVLLSLPKSLEHHHHHH | not soluble
MGSDKIHHHHHHMPQYTVYLAPAGYEQDLIDELGPRVIDVRGRLVRASGGPRHAAWAQNIWLDPVEMRIGSIGDAATRLKGIQRNWFLHAVDHHRRAALIAGKLPHVSARPHVFGTPAPTAPLGSWTLWEHDLVIASARCSSPFPDGEVHFVENRIDPPTRAYLKLWETFTRLGVQPAPGELCLDMGSCPGGWTWVLAGLGARVFSVDKADIAPHIAAMPNVNFCTGSAFGLDPQHAGAVDWFFSDVICYPDRLLATVQRWLERGQCRNFVCTLKFQATTDHATAAAFAAIPGSQLFHLAHNKHELTWVLLRDKA | not soluble
VRDHLPPGLPPDPFADDPCDPSAALEAVEPGQPLDQQERMAVEADLADLAVYEALLAHKGIRGLVVCCDECQQDHYHDWDMLRSNLLQLLIDGTVRPHEPAYDPEPDSYVTWDYCRGYADASLNEAAPDADRFRRR | soluble
MIKHLFIDLDDTLWDTYHNNKSSLEELYHTHAWDRYFDSFETFFSIYLPHNEALWSEYRYGQIDKPTLTLERFRRPFTGYLTLSDEQILAWNAEFLSITGRKTRLCPHALEVMEYLHRYYKVYILSNGFREIQHAKLTNSGLAPYIDRVILSEDAGINKPNKKIFDFALVKAKARKTESIMIGDSWEADIVGAANAGLASVWYNPNRHILPDDGVRAPMHIISSLSELMQIF | not soluble
AQRDVLAVLPQLNAVQNLAGDAPSWAEGYGLYQGDMLGEESASVYRKLLIAVFAPRLVTRIEEQLRSGGSSDFLYEGLKAYLMLGSPDHYDADFIKAWISLDWERNLPRDLSPEQRQALHAHLDALLERRPPSARLDQDLVEDLRRQLQQLPVAQRVYDRVKRQRLPKDVPDFRISDAAGRDAPLVFARKSGKPLTDPLSGFFTYRGYREVFLTASLSQAGTIAEEQWVLGRDLNDAGDAANLALDVRRLYFQDYLRQWDDLLADLTVVPITNVTQAADVLRILSGPTSPFRKLLEAVARETDLQKGDRLVAAQVKKAADGTVDKLKQRLGSLVGQEEEG | not soluble
MGSDKIHHHHHHMSTTMQVIELNGPNRLSISQRQVPETPVDGVLLKTSAVSICSTDISHYHGNLLAEDYPVILGHEYSGIVVDVGPECPSSLQGQRLAYFGQTDFGGMAEYRALRPLFAGDLRSSPFKTGRFFKDDERAAAITLPDEISDSDAPLIEPITAVLRSILTHPPAVGNRVLVLGGGPCGAIAGAILQTLYATKSVAVLERNQARQEIARSQYANFVFGSAEELRESDDDAFDYVFDALPPLVNIEADSCPRRAAMRAAKPGSKYVLYGASQTLQQFDTWLLLAKGITLASAAFDVDHFPMYKTAFVMKTAKELLLRRIIDPGWMMTNHMSFWRPQEVIQFFAEYYTTPHLKTVIHFDQ | not soluble
